Groups on a side chain read outwards from the residue. No end group written: not given here. NSMP = not defined here
B1: MS-Roche #3.4.H5 Fab (Fab, V domains shown)
VH: QVQLVESGGGLVQPGGSLRLSCAASGFTFSSYAMSWVRQAPGKGLEWVSVISQVGAHIYYADSVKGRFTISRDNSKNTLYLQMNSLRAEDTAVYYCARLTHYARYYRYFDVWGQGTLVTVSS
VL: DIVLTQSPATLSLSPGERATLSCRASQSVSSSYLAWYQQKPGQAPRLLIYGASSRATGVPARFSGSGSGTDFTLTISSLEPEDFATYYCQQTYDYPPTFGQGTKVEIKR
B2: MS-Roche #3.4.H17 Fab (Fab, V domains shown)
VH: QVQLVESGGGLVQPGGSLRLSCAASGFTFSSYAMSWVRQAPGKGLEWVSAISEFGQFIYYADSVKGRFTISRDNSKNTLYLQMNSLRAEDTAVYYCARLTHYARYYRYFDVWGQGTLVTVSS
VL: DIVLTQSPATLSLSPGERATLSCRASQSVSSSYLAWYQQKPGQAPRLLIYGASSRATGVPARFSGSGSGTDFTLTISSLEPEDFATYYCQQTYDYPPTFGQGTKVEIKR
B3: MS-Roche #3.4.L11 Fab (Fab, V domains shown)
VH: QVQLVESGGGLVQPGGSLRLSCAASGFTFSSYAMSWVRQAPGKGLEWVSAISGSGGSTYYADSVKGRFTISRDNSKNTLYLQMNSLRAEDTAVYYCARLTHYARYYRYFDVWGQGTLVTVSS
VL: DIVLTQSPATLSLSPGERATLSCRASQLVGRAYLAWYQQKPGQAPRLLIYGASSRATGVPARFSGSGSGTDFTLTISSLEPEDFATYYCQQTYDYPPTFGQGTKVEIKR
B4: MS-Roche #3.6.H1 Fab (Fab, V domains shown)
VH: QVQLVESGGGLVQPGGSLRLSCAASGFTFSSYAMSWVRQAPGKGLEWVSVISESGQYKYYADSVKGRFTISRDNSKNTLYLQMNSLRAEDTAVYYCARLTHYARYYRYFDVWGQGTLVTVSS
VL: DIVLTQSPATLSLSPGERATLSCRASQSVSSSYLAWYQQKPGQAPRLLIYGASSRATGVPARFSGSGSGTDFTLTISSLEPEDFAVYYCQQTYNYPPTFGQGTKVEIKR
B5: MS-Roche #3.6.H6 Fab (Fab, V domains shown)
VH: QVQLVESGGGLVQPGGSLRLSCAASGFTFSSYAMSWVRQAPGKGLEWVSAISEHGTNIYYADSVKGRFTISRDNSKNTLYLQMNSLRAEDTAVYYCARLTHYARYYRYFDVWGQGTLVTVSS
VL: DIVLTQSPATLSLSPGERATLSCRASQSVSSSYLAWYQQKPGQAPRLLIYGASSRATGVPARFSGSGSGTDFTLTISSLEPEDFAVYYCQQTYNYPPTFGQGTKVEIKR
B6: MS-Roche #3.6.H2 Fab (Fab, V domains shown)
VH: QVQLVESGGGLVQPGGSLRLSCAASGFTFSSYAMSWVRQAPGKGLEWVSVISERGINTYYADSVKGRFTISRDNSKNTLYLQMNSLRAEDTAVYYCARLTHYARYYRYFDVWGQGTLVTVSS
VL: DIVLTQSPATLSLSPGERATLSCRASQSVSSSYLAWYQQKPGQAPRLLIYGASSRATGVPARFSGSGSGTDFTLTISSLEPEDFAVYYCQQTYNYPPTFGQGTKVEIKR
B7: MS-Roche #3.4H7×3.4L9 Fab (Fab, V domains shown)
VH: QLVESGGGLVQPGGSLRLSCAASGFTFSSYAMSWVRQAPGKGLEWVSVISETGKNIYYADSVKGRFTISRDNSKNTLYLQMNSLRAEDTAVYYCARLTHYARYYRYFDVWGQGTLVTVSS
VL: DIVLTQSPATLSLSPGERATLSCRASRRIHVYYLAWYQQKPGQAPRLLIYGASSRATGVPARFSGSGSGTDFTLTISSLEPEDFATYYCQQTYDYPPTFGQGTKVEIKR
notes: cross-cloned Fab
B8: MS-Roche #7.11H1×7.2L1 Fab (Fab, V domains shown)
VH: QLVESGGGLVQPGGSLRLSCAASGFTFSSYAMSWVRQAPGKGLEWVSGINAAGFRTYYADSVKGRFTISRDNSKNTLYLQMNSLRAEDTAVYYCARGKGNTHKPYGYVRYFDVWGQGTLVTVSS
VL: DIVLTQSPATLSLSPGERATLSCRASQYVDRTYLAWYQQKPGQAPRLLIYGASSRATGVPARFSGSGSGTDFTLTISSLEPEDFATYYCQQIYSFPHTFGQGTKVEIKR
notes: cross-cloned Fab; VH entry starts at QLVESGG
B9: MS-Roche #3.4H3×3.4L7 Fab (Fab, V domains shown)
VH: QLVESGGGLVQPGGSLRLSCAASGFTFSSYAMSWVRQAPGKGLEWVSVISQTGRKIYYADSVKGRFTISRDNSKNTLYLQMNSLRAEDTAVYYCARLTHYARYYRYFDVWGQGTLVTVSS
VL: DIVLTQSPATLSLSPGERATLSCRASQRLGRLYLAWYQQKPGQAPRLLIYGASSRATGVPARFSGSGSGTDFTLTISSLEPEDFATYYCQQTYDYPPTFGQGTKVEIKR
notes: cross-cloned Fab
B10: MS-Roche #3.6H5×3.6L2 Fab (Fab, V domains shown)
VH: QLVESGGGLVQPGGSLRLSCAASGFTFSSYAMSWVRQAPGKGLEWVSAISESGKTKYYADSVKGRFTISRDNSKNTLYLQMNSLRAEDTAVYYCARLTHYARYYRYFDVWGQGTLVTVSS
VL: DIVLTQSPATLSLSPGERATLSCRASQFLSRYYLAWYQQKPGQAPRLLIYGASSRATGVPARFSGSGSGTDFTLTISSLEPEDFAVYYCQQTYNYPPTFGQGTKVEIKR
notes: as for B8
B11: MS-Roche #3.6H5×3.6L1 Fab (Fab, V domains shown)
VH: QLVESGGGLVQPGGSLRLSCAASGFTFSSYAMSWVRQAPGKGLEWVSAISESGKTKYYADSVKGRFTISRDNSKNTLYLQMNSLRAEDTAVYYCARLTHYARYYRYFDVWGQGTLVTVSS
VL: DIVLTQSPATLSLSPGERATLSCRASQFIQRFYLAWYQQKPGQAPRLLIYGASSRATGVPARFSGSGSGTDFTLTISSLEPEDFAVYYCQQTYNYPPTFGQGTKVEIKR
notes: cross-cloned Fab
B12: MS-Roche #3.3H1×3.4L9 Fab (Fab, V domains shown)
VH: QLVESGGGLVQPGGSLRLSCAASGFTFSSYAMSWVRQAPGKGLEWVSVISEKSRFIYYADSVKGRFTISRDNSKNTLYLQMNSLRAEDTAVYYCARLTHYARYYRYFDVWGQGTLVTVSS
VL: DIVLTQSPATLSLSPGERATLSCRASRRIHVYYLAWYQQKPGQAPRLLIYGASSRATGVPARFSGSGSGTDFTLTISSLEPEDFATYYCQQTYDYPPTFGQGTKVEIKR
notes: cross-cloned Fab
B13: MS-Roche #3.4H3×3.4L9 Fab (Fab, V domains shown)
VH: QLVESGGGLVQPGGSLRLSCAASGFTFSSYAMSWVRQAPGKGLEWVSVISQTGRKIYYADSVKGRFTISRDNSKNTLYLQMNSLRAEDTAVYYCARLTHYARYYRYFDVWGQGTLVTVSS
VL: DIVLTQSPATLSLSPGERATLSCRASRRIHVYYLAWYQQKPGQAPRLLIYGASSRATGVPARFSGSGSGTDFTLTISSLEPEDFATYYCQQTYDYPPTFGQGTKVEIKR
notes: cross-cloned Fab
B14: MS-Roche #3.4H7×3.4L7 Fab (Fab, V domains shown)
VH: QLVESGGGLVQPGGSLRLSCAASGFTFSSYAMSWVRQAPGKGLEWVSVISETGKNIYYADSVKGRFTISRDNSKNTLYLQMNSLRAEDTAVYYCARLTHYARYYRYFDVWGQGTLVTVSS
VL: DIVLTQSPATLSLSPGERATLSCRASQRLGRLYLAWYQQKPGQAPRLLIYGASSRATGVPARFSGSGSGTDFTLTISSLEPEDFATYYCQQTYDYPPTFGQGTKVEIKR
notes: cross-cloned Fab
B15: MS-Roche #3.4H1×3.4L9 Fab (Fab, V domains shown)
VH: QLVESGGGLVQPGGSLRLSCAASGFTFSSYAMSWVRQAPGKGLEWVSAISETSIRKYYADSVKGRFTISRDNSKNTLYLQMNSLRAEDTAVYYCARLTHYARYYRYFDVWGQGTLVTVSS
VL: DIVLTQSPATLSLSPGERATLSCRASRRIHVYYLAWYQQKPGQAPRLLIYGASSRATGVPARFSGSGSGTDFTLTISSLEPEDFATYYCQQTYDYPPTFGQGTKVEIKR
notes: cross-cloned Fab
B16: MS-Roche #7.12 Fab (Fab, V domains shown)
VH: QVQLVESGGGLVQPGGSLRLSCAASGFTFSSYGMSWVRQAPGKGLEWVSNISGSGSSTYYADSVKGRFTISRDNSKNTLYLQMNSLRAEDTAVYYCARGKGNTHKPYGYVRYFDVWGQGTLVTVSS
VL: DIVLTQSPATLSLSPGERATLSCRASQYVSSPYLAWYQQKPGQAPRLLISGSSNRATGVPARFSGSGSGTDFTLTISSLEPEDFAVYYCLQLYNIPNTFGQGTKVEIKR
B17: MS-Roche #8.1.H1 Fab (Fab, V domains shown)
VH: QVQLVESGGGLVQPGGSLRLSCAASGFTFSSYAMSWVRQAPGKGLEWVSAISRSGSNIYYADSVKGRFTISRDNSKNTLYLQMNSLRAEDTAVYYCARLLSRGYNGYYHKFDVWGQGTLVTVSS
VL: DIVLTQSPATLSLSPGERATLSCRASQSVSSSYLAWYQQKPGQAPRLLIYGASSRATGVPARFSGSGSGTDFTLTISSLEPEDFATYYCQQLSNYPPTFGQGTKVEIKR
B18: MS-Roche #8.2.L1 Fab (Fab, V domains shown)
VH: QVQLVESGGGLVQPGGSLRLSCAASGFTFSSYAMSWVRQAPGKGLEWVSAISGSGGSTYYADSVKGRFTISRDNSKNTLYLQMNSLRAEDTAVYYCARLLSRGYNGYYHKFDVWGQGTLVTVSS
VL: DIVLTQSPATLSLSPGERATLSCRASQRVSGRYLAWYQQKPGQAPRLLIYGASSRATGVPARFSGSGSGTDFTLTISSLEPEDFATYYCQQLSSYPPTFGQGTKVEIKR

Tests used:
[1] = target: T1, BSA-conjugated Aβ heptapeptide AEFRHDC (C-terminal Cys coupled to NSMP-activated BSA); assay: ELISA
T1 construct: also called Peptide 2-7
T1 peptide: AEFRHDC
Method: (§1) 50 μl of NSMP activated BSA (6.7 mg/ml) was diluted with 50 μl of PBS, 0.1% sodium azide and 10 μl of peptide solution (1 mM in DMSO) was added. As negative control activated BSA was mock-treated without peptide addition. After 4 hrs at room temperature the reaction was stopped by addition of 10 μl of 10 mM Cystein. An aliquot of the conjugate reaction mixture was diluted 1:100 with 0.1M sodium bicarbonate buffer and immediately filled into the wells (100 μl) of ELISA plates (Nunc Immuno-Plate). After standing 16 hrs at 4° C. 100 μl blocking buffer (as above) was added to each well and incubated for another 30 minutes. The plates were washed with 2×300 μl/well TBST (as above) and filled with 100 μl antibody at 10 μg/ml or 2 μg/ml in blocking buffer. The plates were kept 16 hours at 4° C. and washed with 2×300 μl TBST. 100 μl/well HRP-conjugated anti-human Ig H+L (Pierce, dilution 1:1000 with blocking buffer) was added and incubated for 1 hour at ambient temperature. The plates were washed with 3×300 μl/well TBST. Colour development was started by addition of 100 μl tetra-methyl benzidine/hydrogen peroxide reagent.

[2] = target: T2, BSA-conjugated Aβ heptapeptide LVFFAEC (reading uncertain; also: BSA conjugate); assay: ELISA
T2 construct: also called Peptide 17-22
T2 peptide: LVFFAEC([NSMP-BSA])
Method: as §1

[3] = target: T3, BSA-conjugated Aβ heptapeptide VFFAEDC (C-terminal Cys coupled to NSMP-activated BSA); assay: ELISA
T3 construct: also called Peptide 18-23
T3 peptide: VFFAEDC
Method: as §1

[4] = target: T4, BSA-conjugated Aβ heptapeptide FFAEDVC (C-terminal Cys coupled to NSMP-activated BSA); assay: ELISA
T4 construct: also called Peptide 19-24
T4 peptide: FFAEDVC
Method: as §1

human Aβ (1-40) peptide [5] = target: T5, human Aβ (1-40) peptide (human); assay: SPR, immobilized fibers;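 note: biacore SPR using in vitro grown Aβ1-40 or Aβ1-42 fibrils immobilized on the chip with Fab analytes, KD from koff/kon fits or equilibrium isotherms based on total Fab concentration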
T5 construct: also called Aβ1-40 fibers

Aβ (1-42) peptide [6] = target: T6, Aβ (1-42) peptide (human); assay: SPR, immobilized fibers;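 note: biacore SPR using in vitro grown Aβ1-40 or Aβ1-42 fibrils immobilized on the chip with Fab analytes, KD from koff/kon fits or equilibrium isotherms based on total Fab concentration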
T6 construct: also called Aβ1-42 fibers; Aβ4

human Aβ (1-40) peptide [7] = target: T5, human Aβ (1-40) peptide; assay: SPR, kinetic fit, immobilized fibers;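 note: surface plasmon resonance on a Biacore chip bearing in vitro formed Aβ1-40 or Aβ1-42 fibers, KD taken as koff/kon by fitting time-resolved sensor responses, based on total Fab concentration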
Method: (§2) Biacore2000 and Biacore3000 instruments were used for these measurements. Aβ1-40 and Aβ1-42 fibers were generated in vitro by incubation of synthetic peptides at a concentration of 200 μg/ml in 10 mM Na-acetate buffer (pH 4.0) for three days at 37° C. […] For binders with slow kinetics KD values were calculated by curve fitting of the time-dependent sensor responses, i.e. from the ratio of koff/kₒₙ. Binders with fast kinetics were analyzed by fitting the concentration-dependent sensor responses at equilibrium (adsorption-isotherms). KD values were calculated from the Biacore sensograms based on the total Fab concentration as determined by a protein assay. […] Briefly, time-dependent protein binding to Aβ1-40 fibers immobilized on the Biacore chip was measured during the association phase under mass-limited conditions at different flow rates of the analyte solution.

Aβ (1-42) peptide [8] = target: T6, Aβ (1-42) peptide; assay: SPR, kinetic fit, immobilized fibers;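 note: surface plasmon resonance on a Biacore chip bearing in vitro formed Aβ1-40 or Aβ1-42 fibers, KD taken as koff/kon by fitting time-resolved sensor responses, based on total Fab concentration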
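Throughout, for OD ratio 17-22/BSA: ELISA of antibody at 10 or 2 µg/ml binding plate-coated BSA–peptide conjugates, detected with HRP anti-human Ig and TMB colour, mock-treated BSA without peptide as negative control.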
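Throughout, for OD ratio 18-23/BSA: ELISA of antibody at 10 or 2 µg/ml binding plate-coated BSA–peptide conjugates, detected with HRP anti-human Ig and TMB colour, mock-treated BSA without peptide as negative control.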
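Throughout, for OD ratio 2-7/BSA: ELISA of antibody at 10 or 2 µg/ml binding plate-coated BSA–peptide conjugates, detected with HRP anti-human Ig and TMB colour, mock-treated BSA without peptide as negative control.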
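Throughout, for Peptide-ratio 17-22/2-7: ELISA of antibody at 10 or 2 µg/ml binding plate-coated BSA–peptide conjugates, detected with HRP anti-human Ig and TMB colour, mock-treated BSA without peptide as negative control.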
Method: as §2

Row | Binder | OD ratio 2-7/BSA [1] | OD ratio 17-22/BSA [2] | Peptide-ratio 17-22/2-7 [2] | OD ratio 18-23/BSA [3] | Peptide-ratio 18-23/2-7 [3] | OD ratio 19-24/BSA [4] | Peptide-ratio 19-24/2-7 [4] | Kd (human Aβ (1-40) peptide [5]) [nM] | Kd (Aβ (1-42) peptide [6]) [nM] | Kd (human Aβ (1-40) peptide [7]) [nM] | Kd (Aβ (1-42) peptide [8]) [nM]
1 | B1 | 28 | 5 | 0.18 | 13 | 0.46 | 4 | 0.14 | 26.5 | 36 | – | –
2 | B2 | 28 | 5 | 0.18 | 12 | 0.43 | 11 | 0.39 | 2 | 4.3 | – | –
3 | B3 | 31 | 6 | 0.19 | 20 | 0.65 | 5 | 0.16 | 5.3 | 2.6 | – | –
4 | B4 | 23 | 3 | 0.13 | 13 | 0.57 | 5 | 0.22 | 18.9 | 23.1 | – | –
5 | B5 | 25 | 1 | 0.04 | 4 | 0.16 | 7 | 0.28 | 36 | 11.8 | – | –
6 | B6 | 19 | 2 | 0.11 | 8 | 0.42 | 3 | 0.16 | 19.8 | 54 | – | –
7 | B7 | – | – | – | – | – | – | – | – | – | 2.66 | 3.51
8 | B8 | – | – | – | – | – | – | – | – | – | 1.75 | 1.39
9 | B9 | – | – | – | – | – | – | – | – | – | 0.92 | 0.92
10 | B10 | – | – | – | – | – | – | – | – | – | 1.26 | 0.84
11 | B11 | – | – | – | – | – | – | – | – | – | 1.25 | 1.04
12 | B12 | – | – | – | – | – | – | – | – | – | 2.16 | 2.97
13 | B13 | – | – | – | – | – | – | – | – | – | 1.05 | 0.93
14 | B14 | – | – | – | – | – | – | – | – | – | 1.19 | 1.23
15 | B15 | – | – | – | – | – | – | – | – | – | 0.25 | 0.5
16 | B16 | 38 | 6 | 0.16 | 8 | 0.21 | 7 | 0.18 | 28 | 60 | – | –
17 | B17 | 29 | 22 | 0.77 | 25 | 0.88 | 25 | 0.86 | 13.6 | 9.2 | – | –
18 | B18 | 26 | 15 | 0.6 | 32 | 1.26 | 31 | 1.22 | 4.8 | 3.7 | – | –
